Our source for the protein stability index values is the supplement of paper PMC10567573.

± gives the standard deviation.

The data set is described as follows: protein stability index of a GFP-peptide fusion (GPS, HEK-293T) (PSI 1-6); higher = more stable. The settings on record: c terminus: a fixed tail appended.
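Note: 24-mer peptide tiles fused after GFP, lentivirally expressed, FACS-sorted into six equal bins by GFP/DsRed ratio, decoded by Illumina sequencing, PSI is the read-weighted mean bin number.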

Take LSPEVLRKDPYGKPVDMWACGVIL [CAMK2D]: the protein stability index runs as follows: (treatment: DMSO) 2.74 ± 0.55; (treatment: MLN4924 1 uM, 8 h) 2.14 ± 0.71.

On to LSQAGQKTSAALSTVGSAISRKLG [TPD52L2], for which the protein stability index reads like this: (treatment: DMSO) 3.67 ± 0.22; (treatment: MLN4924 1 uM, 8 h) 3.92 ± 0.27.

LSVGQYNCPGQYTFSMPSDSHVSS [CD69] showed a protein stability index (treatment: DMSO) of 3.05 ± 0.28 and a protein stability index (treatment: MLN4924 1 uM, 8 h) of 3.07 ± 0.27.

Regarding LTDDKQVLNTQGQKTSGQHMIQGA [DLC1], the protein stability index (treatment: DMSO) was 5.06 ± 0.2 and the protein stability index (treatment: MLN4924 1 uM, 8 h) stood at 5.04 ± 0.14.

For LTEDYFPSVPDNAELVLLTLGQAW [DFFB], the protein stability index came out at 2.34 ± 0.23 (treatment: DMSO) and 2.34 ± 0.22 (treatment: MLN4924 1 uM, 8 h).

Consider LTLSAGDLGGSIYANLALSGLIEI [SLC22A15], for which the protein stability index runs as follows: (treatment: DMSO) 2.77 ± 0.91; (treatment: MLN4924 1 uM, 8 h) 3.43 ± 0.74.

On to LTPLELLLRQLGRDAGATPSAAGA [ANKRD9], for which the protein stability index worked out at 2.42 ± 0.16 (treatment: DMSO) and 2.58 ± 0.23 (treatment: MLN4924 1 uM, 8 h).

With LTPSSKEMMSQALKATFSGFTKEQ [ETS1], the protein stability index reads like this: (treatment: DMSO) 3.87 ± 0.24; (treatment: MLN4924 1 uM, 8 h) 3.74 ± 0.19.

Regarding LTPTYLNQEDAIHFHRTLKEACDQ [CPOX], the protein stability index (treatment: DMSO) worked out at 4.11 ± 0.25 and the protein stability index (treatment: MLN4924 1 uM, 8 h) turned out to be 4.35 ± 0.29.

Take LTQIDGTLSTIEFQREALENSHTN [CHMP4C]: the protein stability index by setting is: (treatment: DMSO) 4.34 ± 0.25; (treatment: MLN4924 1 uM, 8 h) 4.57 ± 0.22.

In turn, LVAPVLEPGKQERDVYLPAGKWRS [MYORG] returned a protein stability index (treatment: DMSO) of 3.49 ± 0.16 and a protein stability index (treatment: MLN4924 1 uM, 8 h) of 3.75 ± 0.2.

LVEDMQRELGRLRQQVTNHGRGTE [ZNF263] came in with a protein stability index (treatment: DMSO) of 3.35 ± 0.33 and a protein stability index (treatment: MLN4924 1 uM, 8 h) of 3.55 ± 0.22.

Regarding LVTLPVSFAQLKNLKWLDLKDNPL [LRRC59], the protein stability index was found to be 2.29 ± 0.082 (treatment: DMSO) and 2.31 ± 0.23 (treatment: MLN4924 1 uM, 8 h).

Consider LWEALCSQGAISEGAQRDRFPGRK [C22orf31], for which the protein stability index came to 3.11 ± 0.12 (treatment: DMSO) and 3.3 ± 0.32 (treatment: MLN4924 1 uM, 8 h).

Turning to MAEGDNRSTNLLAAETASLEEQLQ [ARL6IP1], the protein stability index (treatment: DMSO) amounted to 5.37 ± 0.31 and the protein stability index (treatment: MLN4924 1 uM, 8 h) came to 5.43 ± 0.17.

MATPDAGLPGAEGVEPAPWAQLEA [FANCE] gave a protein stability index (treatment: DMSO) of 4.86 ± 0.32 and a protein stability index (treatment: MLN4924 1 uM, 8 h) of 4.96 ± 0.27.

Take MDEAVGDLKQALPCVAESPTVHVE [TRIP13]: the protein stability index amounted to 5.18 ± 0.13 (treatment: DMSO) and 5.01 ± 0.19 (treatment: MLN4924 1 uM, 8 h).

Regarding MDLLTQSLGVDTLPPPDPNPPRAE [APBB1IP], the protein stability index is 4.85 ± 0.2 (treatment: DMSO) and 4.87 ± 0.14 (treatment: MLN4924 1 uM, 8 h).

As for MESLISAPLVKTLEKEEEKDLVMY [CDC25B], the protein stability index reads like this: (treatment: DMSO) 4.56 ± 0.062; (treatment: MLN4924 1 uM, 8 h) 4.61 ± 0.24.

Take MEVQHFRTIYHMFIAGLCVFIIST [SOAT2]: the protein stability index (treatment: DMSO) turned out to be 2.95 ± 0.27 and the protein stability index (treatment: MLN4924 1 uM, 8 h) was determined as 3.18 ± 0.52.

For the sequence MGEDEDGLSEKNCQNKCRIALVEN [PLD5], the protein stability index is 5.14 ± 0.51 (treatment: DMSO) and 4.82 ± 0.11 (treatment: MLN4924 1 uM, 8 h).

For MGESSEDIDQMFSTLLGEMDLLTQ [APBB1IP], the protein stability index reads like this: (treatment: DMSO) 4.25 ± 0.11; (treatment: MLN4924 1 uM, 8 h) 4.08 ± 0.32.

The sequence MGVGKASASDGSSFVVARYFPAGN [GLIPR2] came in with a protein stability index (treatment: DMSO) of 3.13 ± 0.26 and a protein stability index (treatment: MLN4924 1 uM, 8 h) of 2.96 ± 0.26.

In the case of MGYMLFNERMLESYLHAKKYLKPS [CARM1], the protein stability index by setting is: (treatment: DMSO) 2.35 ± 0.17; (treatment: MLN4924 1 uM, 8 h) 2.08 ± 0.32.

For MHDAFEPVPILEKLPLQIDCLAAW [VPS39], the protein stability index (treatment: DMSO) is 2.56 ± 0.34 and the protein stability index (treatment: MLN4924 1 uM, 8 h) is 2.56 ± 0.27.

MIRKGGDQTSLLVVDKETDNMYRL [PDZK1]: the protein stability index (treatment: MLN4924 1 uM, 8 h) was found to be 3.17 ± 0.25.

In the case of MKAHSFVRENVPRVLNSAKEKSST [SOAT1], the protein stability index stood at 4.58 ± 0.12 (treatment: DMSO) and 4.57 ± 0.13 (treatment: MLN4924 1 uM, 8 h).

With MKGRGQLEKPPAPNQAMVVAAAGD [TBC1D10A], the protein stability index came out at 5 ± 0.26 (treatment: DMSO) and 4.94 ± 0.49 (treatment: MLN4924 1 uM, 8 h).

The sequence MKTFVSPEAISPDLVKKIRDFHRK [TRIM15] displayed a protein stability index (treatment: DMSO) of 3.17 ± 0.13 and a protein stability index (treatment: MLN4924 1 uM, 8 h) of 3.07 ± 0.16.
